Assay results from patent US20240383958A1, “APELIN RECEPTOR AGONISTS AND USES THEREOF” (VISTERRA, INC., priority 2023, published 2024).

T1: APJ-eGFP fusion protein on CHO-M1 cells (UniProt P35414 1-380)
T1 sequence (looked up): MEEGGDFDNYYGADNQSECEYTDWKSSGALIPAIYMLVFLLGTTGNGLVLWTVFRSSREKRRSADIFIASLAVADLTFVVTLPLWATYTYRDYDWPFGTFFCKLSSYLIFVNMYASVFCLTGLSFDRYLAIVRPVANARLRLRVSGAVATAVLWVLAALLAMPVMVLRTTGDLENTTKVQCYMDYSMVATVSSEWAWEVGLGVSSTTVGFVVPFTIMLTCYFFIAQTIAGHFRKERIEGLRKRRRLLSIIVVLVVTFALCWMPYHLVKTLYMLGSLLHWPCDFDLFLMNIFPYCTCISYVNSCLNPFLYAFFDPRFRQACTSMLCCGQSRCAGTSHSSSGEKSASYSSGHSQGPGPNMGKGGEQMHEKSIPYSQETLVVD


Assays:
[1] = Proteolysis during production detected using mass spectroscopy; type: physicochemical; conditions: proteolytic stability
Description: Proteolysis during production was detected using mass spectroscopy, which provides insights into the proteolytic stability of the apelin receptor agonists.

[2] = test system: APJ-eGFP fusion protein; test: Internalization assay, CHO-M1 cells expressing APJ-eGFP, high-content imaging; type: cell-based; design: key: 0: No Internalization; >1000; 2: 100-1000; 3: 10-100; 4: <10; conditions: lowest concentration at which maximum internalization was observed; 0.914 nM to 2000 nM
Description: In this example, the internalization of exemplary apelin receptor agonist was assessed. CHO-M1 cells expressing an APJ-eGFP fusion protein were stained and plated in a 96-well plate. Apelin receptor agonists were serially diluted and added to the wells at concentrations ranging from 0.914 nM to 2000 nM. The cells were later imaged using an Operetta CLS™ high-content analysis system. APJ-eGFP signal was measured in the membrane and cytoplasmic region, and the ratio of membrane signal to total signal was calculated (E ratio). An internalization score was assigned based on the lowest concentration of the compound at which maximum internalization was observed. The internalization score for each apelin receptor agonist was plotted against the EC50 values for cAMP signaling and beta-arrestin signaling as shown in FIG. 2 and FIG. 3.

[3] = target: T1, APJ-eGFP fusion protein on CHO-M1 cells; test: cell-based or functional assay

| Molecule | Proteolysis During Production? [1] | Internalization Score [2] | Internalization Score [3] |
| --- | --- | --- | --- |
| APL-K: Leader-Fc-linker fusion of apelin analogue QRPRLQHKNPMAF (S6Q, G9N, P12A) (protein) MRAWIFFLLCLAGRALADKTHTSPPSPAPEAAGGPSVFLFPPKPKDTLMISRTPEVTCVVVDVSHEDPEVKFNWYVDGVEVHNAKTKPREEQYNSTYRVVSVLTVLHQDWLNGKEYKCKVSNKALPAPIEKTISKAKGQPREPQVYTLPPSREEMTKNQVNLTCLVKGFYPSDIAVEWESNGQPENNYKTTPPVLDSDGSFFLNSTLTVDKSRWQQGNVFSCSVMHEALHNHYTQKSLSLSPGKGGGGSGGGGSGGGGSQRPRLQHKNPMAF | No | 0 |  |
| APL-L: Leader-Fc-linker fusion of apelin analogue QRPRLQHKNPMAW (S6Q, G9N, P12A, F13W) (protein) MRAWIFFLLCLAGRALADKTHTSPPSPAPEAAGGPSVFLFPPKPKDTLMISRTPEVTCVVVDVSHEDPEVKFNWYVDGVEVHNAKTKPREEQYNSTYRVVSVLTVLHQDWLNGKEYKCKVSNKALPAPIEKTISKAKGQPREPQVYTLPPSREEMTKNQVNLTCLVKGFYPSDIAVEWESNGQPENNYKTTPPVLDSDGSFFLNSTLTVDKSRWQQGNVFSCSVMHEALHNHYTQKSLSLSPGKGGGGSGGGGSGGGGSQRPRLQHKNPMAW | No | 0 |  |
| APL-M: Leader-Fc-linker fusion of apelin analogue QRPRLSHWGPMAW (K8W, P12A, F13W) (protein) MRAWIFFLLCLAGRALADKTHTSPPSPAPEAAGGPSVFLFPPKPKDTLMISRTPEVTCVVVDVSHEDPEVKFNWYVDGVEVHNAKTKPREEQYNSTYRVVSVLTVLHQDWLNGKEYKCKVSNKALPAPIEKTISKAKGQPREPQVYTLPPSREEMTKNQVNLTCLVKGFYPSDIAVEWESNGQPENNYKTTPPVLDSDGSFFLNSTLTVDKSRWQQGNVFSCSVMHEALHNHYTQKSLSLSPGKGGGGSGGGGSGGGGSQRPRLSHWGPMAW | No | 0 |  |
| APL-A: Monovalent IgG1 Fc fused via GGGGSGGGGSGGGGS linker to wild-type apelin-13 QRPRLSHKGPMPF (protein) MRAWIFFLLCLAGRALADKTHTSPPSPAPEAAGGPSVFLFPPKPKDTLMISRTPEVTCVVVDVSHEDPEVKFNWYVDGVEVHNAKTKPREEQYNSTYRVVSVLTVLHQDWLNGKEYKCKVSNKALPAPIEKTISKAKGQPREPQVYTLPPSREEMTKNQVNLTCLVKGFYPSDIAVEWESNGQPENNYKTTPPVLDSDGSFFLNSTLTVDKSRWQQGNVFSCSVMHEALHNHYTQKSLSLSPGKGGGGSGGGGSGGGGSQRPRLSHKGPMPF | Yes | 2 (100-1000) |  |
| APL-A (Fc fusion) DKTHTSPPSPAPEAAGGPSVFLFPPKPKDTLMISRTPEVTCVVVDVSHEDPEVKFNWYVDGVEVHNAKTKPREEQYNSTYRVVSVLTVLHQDWLNGKEYKCKVSNKALPAPIEKTISKAKGQPREPQVYTLPPSREEMTKNQVNLTCLVKGFYPSDIAVEWESNGQPENNYKTTPPVLDSDGSFFLNSTLTVDKSRWQQGNVFSCSVMHEALHNHYTQKSLSLSPGKGGGGSGGGGSGGGGSQRPRLSHKGPMPF |  |  | 2 |
| APL-B (Fc fusion) DKTHTSPPSPAPEAAGGPSVFLFPPKPKDTLMISRTPEVTCVVVDVSHEDPEVKFNWYVDGVEVHNAKTKPREEQYNSTYRVVSVLTVLHQDWLNGKEYKCKVSNKALPAPIEKTISKAKGQPREPQVYTLPPSREEMTKNQVNLTCLVKGFYPSDIAVEWESNGQPENNYKTTPPVLDSDGSFFLNSTLTVDKSRWQQGNVFSCSVMHEALHNHYTQKSLSLSPGKGGGGSGGGGSGGGGSQRPRLSHKGPMVF |  |  | 2 |
| APL-K (Fc fusion) DKTHTSPPSPAPEAAGGPSVFLFPPKPKDTLMISRTPEVTCVVVDVSHEDPEVKFNWYVDGVEVHNAKTKPREEQYNSTYRVVSVLTVLHQDWLNGKEYKCKVSNKALPAPIEKTISKAKGQPREPQVYTLPPSREEMTKNQVNLTCLVKGFYPSDIAVEWESNGQPENNYKTTPPVLDSDGSFFLNSTLTVDKSRWQQGNVFSCSVMHEALHNHYTQKSLSLSPGKGGGGSGGGGSGGGGSQRPRLQHKNPMAF |  |  | 0 |
| APL-L (Fc fusion) DKTHTSPPSPAPEAAGGPSVFLFPPKPKDTLMISRTPEVTCVVVDVSHEDPEVKFNWYVDGVEVHNAKTKPREEQYNSTYRVVSVLTVLHQDWLNGKEYKCKVSNKALPAPIEKTISKAKGQPREPQVYTLPPSREEMTKNQVNLTCLVKGFYPSDIAVEWESNGQPENNYKTTPPVLDSDGSFFLNSTLTVDKSRWQQGNVFSCSVMHEALHNHYTQKSLSLSPGKGGGGSGGGGSGGGGSQRPRLQHKNPMAW |  |  | 0 |
| APL-M (Fc fusion) DKTHTSPPSPAPEAAGGPSVFLFPPKPKDTLMISRTPEVTCVVVDVSHEDPEVKFNWYVDGVEVHNAKTKPREEQYNSTYRVVSVLTVLHQDWLNGKEYKCKVSNKALPAPIEKTISKAKGQPREPQVYTLPPSREEMTKNQVNLTCLVKGFYPSDIAVEWESNGQPENNYKTTPPVLDSDGSFFLNSTLTVDKSRWQQGNVFSCSVMHEALHNHYTQKSLSLSPGKGGGGSGGGGSGGGGSQRPRLSHWGPMAW |  |  | 0 |
| APL-I (Fc fusion) DKTHTSPPSPAPEAAGGPSVFLFPPKPKDTLMISRTPEVTCVVVDVSHEDPEVKFNWYVDGVEVHNAKTKPREEQYNSTYRVVSVLTVLHQDWLNGKEYKCKVSNKALPAPIEKTISKAKGQPREPQVYTLPPSREEMTKNQVNLTCLVKGFYPSDIAVEWESNGQPENNYKTTPPVLDSDGSFFLNSTLTVDKSRWQQGNVFSCSVMHEALHNHYTQKSLSLSPGKGGGGSGGGGSGGGGSQRPRLSHKGPAAW |  |  | 1 |
| APL-E (Fc fusion) DKTHTSPPSPAPEAAGGPSVFLFPPKPKDTLMISRTPEVTCVVVDVSHEDPEVKFNWYVDGVEVHNAKTKPREEQYNSTYRVVSVLTVLHQDWLNGKEYKCKVSNKALPAPIEKTISKAKGQPREPQVYTLPPSREEMTKNQVNLTCLVKGFYPSDIAVEWESNGQPENNYKTTPPVLDSDGSFFLNSTLTVDKSRWQQGNVFSCSVMHEALHNHYTQKSLSLSPGKGGGGSGGGGSGGGGSQRPRLSHKGPHPF |  |  | 1 |
| APL-J (Fc fusion) DKTHTSPPSPAPEAAGGPSVFLFPPKPKDTLMISRTPEVTCVVVDVSHEDPEVKFNWYVDGVEVHNAKTKPREEQYNSTYRVVSVLTVLHQDWLNGKEYKCKVSNKALPAPIEKTISKAKGQPREPQVYTLPPSREEMTKNQVNLTCLVKGFYPSDIAVEWESNGQPENNYKTTPPVLDSDGSFFLNSTLTVDKSRWQQGNVFSCSVMHEALHNHYTQKSLSLSPGKGGGGSGGGGSGGGGSQRPRLSHKGPAAY |  |  | 1 |
| APL-G (Fc fusion) DKTHTSPPSPAPEAAGGPSVFLFPPKPKDTLMISRTPEVTCVVVDVSHEDPEVKFNWYVDGVEVHNAKTKPREEQYNSTYRVVSVLTVLHQDWLNGKEYKCKVSNKALPAPIEKTISKAKGQPREPQVYTLPPSREEMTKNQVNLTCLVKGFYPSDIAVEWESNGQPENNYKTTPPVLDSDGSFFLNSTLTVDKSRWQQGNVFSCSVMHEALHNHYTQKSLSLSPGKGGGGSGGGGSGGGGSQRPRLSHKGPMAF |  |  | 3 |
| APL-H (Fc fusion) DKTHTSPPSPAPEAAGGPSVFLFPPKPKDTLMISRTPEVTCVVVDVSHEDPEVKFNWYVDGVEVHNAKTKPREEQYNSTYRVVSVLTVLHQDWLNGKEYKCKVSNKALPAPIEKTISKAKGQPREPQVYTLPPSREEMTKNQVNLTCLVKGFYPSDIAVEWESNGQPENNYKTTPPVLDSDGSFFLNSTLTVDKSRWQQGNVFSCSVMHEALHNHYTQKSLSLSPGKGGGGSGGGGSGGGGSQRPRLSHKGPMHW |  |  | 0 |
| APL-F (Fc fusion) DKTHTSPPSPAPEAAGGPSVFLFPPKPKDTLMISRTPEVTCVVVDVSHEDPEVKFNWYVDGVEVHNAKTKPREEQYNSTYRVVSVLTVLHQDWLNGKEYKCKVSNKALPAPIEKTISKAKGQPREPQVYTLPPSREEMTKNQVNLTCLVKGFYPSDIAVEWESNGQPENNYKTTPPVLDSDGSFFLNSTLTVDKSRWQQGNVFSCSVMHEALHNHYTQKSLSLSPGKGGGGSGGGGSGGGGSQRPRLSHKGPAPY |  |  | 1 |
